According to paper PMC11342882:

Target: FcRn with a C-terminal 6×His-tag and complexed with beta-2-microglobulin (UniProt P55899)
Test: BLI

Chain of FcRn with a C-terminal 6×His-tag and complexed with beta-2-microglobulin (P55899 24-297, chain 1 of 2): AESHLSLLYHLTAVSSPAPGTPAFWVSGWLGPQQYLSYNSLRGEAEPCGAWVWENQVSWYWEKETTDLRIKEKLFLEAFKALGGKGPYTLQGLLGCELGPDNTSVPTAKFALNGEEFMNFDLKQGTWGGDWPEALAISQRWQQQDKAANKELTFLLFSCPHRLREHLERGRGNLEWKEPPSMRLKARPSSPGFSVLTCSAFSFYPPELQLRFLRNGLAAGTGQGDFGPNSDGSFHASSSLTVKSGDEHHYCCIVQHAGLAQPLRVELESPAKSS
Chain of FcRn with a C-terminal 6×His-tag and complexed with beta-2-microglobulin (P61769 21-119, chain 2 of 2, further chain): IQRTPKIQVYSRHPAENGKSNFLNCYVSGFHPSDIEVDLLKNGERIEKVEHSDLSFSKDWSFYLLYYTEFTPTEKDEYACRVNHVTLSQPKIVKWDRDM

sACE2_(2).v2.4-IgG1(YTE) from Expi293F (from UniProt Q9BYF1-1 18-732) (Fc fusion)
Kd: 0.021 µM

sACE2_(2).v2.4-IgG1 (from UniProt Q9BYF1-1 18-732) (Fc fusion)
Kd: > 0.1 µM
